Columns and labels:
human LILRB4 [1] = molecular target: T1, human LILRB4 (human, UniProt Q8NHJ6 22-259, limits assumed); experiment: 'Affinity to human LILRB4'; method not stated in the example
T1 construct: also called ILT3; LIR5

human LILRB4 [2] = molecular target: T1, human LILRB4; experiment: blocking of APOE binding to LILRB4; method not stated in the example
human LILRB4 [3] = molecular target: T1, human LILRB4; experiment: blocking of Fibronectin binding to LILRB4; method not stated in the example

Kd (human LILRB4 [1]): 0.5 nM | IC50 (human LILRB4 [2]): 0.18 nM | IC50 (human LILRB4 [3]): 0.78 nM
B1: anti-LILRB4 antibody H7K3m5 (antibody, IgG1, V domains shown)
VH: EVQLVESGGGLVQPGGSLRLSCAASGFSLSSSYWISWVRQAPGKGLEWIGSIDSGSVGITYYATWVKGRFTISRDNSKNTLYLQMNSLRAEDTAVYYCARHGDNWALDLWGQGTLVTVSS
VL: DIQMTQSPSTLSASVGDRVTITCRASQSISSWLAWYQQKPGKAPKLLIYKASTLASGVPSRFSGSGSGTEFTLTISSLQPDDFATYYCQHGYIRGDLDNVFGGGTKVEIK

From US20250179173A1 (IMMUNE ONC THERAPEUTICS, published 2025)
